This is an account of results in the Immune Epitope Database (IEDB).

For one test, the target named is HLA-A*32:01. The test can be described thus: IEDB peptide-MHC binding, purified MHC/competitive/radioactivity; filed as Kd, often an IC50 or EC50 that approximates it; ≥ and ≤ were set here for values at or beyond the usual limits of such assays.
The target in test [1] is HLA-A*01:01. Described as above.
The target of a further test is HLA-A*30:02. The description is as above.
In a further test the target is HLA-B*40:01. Described as above.
For another test, the target named is HLA-A*26:01. The test is described as above.
In the next test the target is HLA-A*23:01. Described as above.
A further test deals with HLA-A*24:02. The test is described as above.
In the next test the target is HLA-B*44:02. The description is as above.
A further test has as its target HLA-A*03:01. The test can be described thus: IEDB peptide-MHC binding, purified MHC/direct/fluorescence; filed as Kd, often an IC50 or EC50 that approximates it; ≥ and ≤ were set here for values at or beyond the usual limits of such assays.
The next test deals with HLA-B*58:01. The description is as above. The following applies: source organism: Homo sapiens.
A further test concerns the target HLA-B*07:02. The test is described as above. The following applies: source organism: Homo sapiens.
Test [2] concerns the target HLA-A*11:01. The test is described as above.
For test [3], the target named is HLA-A*01:01. The test is described as above. The following applies: source organism: Homo sapiens.
The target in a further test is HLA-A*29:02. The test can be described thus: IEDB peptide-MHC binding, purified MHC/competitive/radioactivity; filed as Kd, often an IC50 or EC50 that approximates it; ≥ and ≤ were set here for values at or beyond the usual limits of such assays. The following applies: source organism: Mammarenavirus whitewaterense.
In another test the target is HLA-B*44:03. The description is as above.
Test [4] concerns the target HLA-A*11:01. The description is as above. The following applies: source organism: Dengue virus 1 Brazil/97-11/1997.
For another test, the target named is HLA-A*02:01. As to the kind of experiment: IEDB peptide-MHC binding, purified MHC/direct/fluorescence; filed as Kd, often an IC50 or EC50 that approximates it; ≥ and ≤ were set here for values at or beyond the usual limits of such assays. The following applies: source organism: Pseudomonas aeruginosa.
For another test, the target named is HLA-A*69:01. The description is as above. The following applies: source organism: Pseudomonas aeruginosa.
Where [5] appears, read: source organism: Dengue virus 4 Philippines/H241/1956.
The mark [6] stands for this setting: source organism: Dengue virus 1 Brazil/97-11/1997.
[7] abbreviates: source organism: Dengue virus 2 Jamaica/1409/1983.
[8] abbreviates: source organism: Dengue virus 2 Peru/IQT2913/1996.
The mark [9] stands for this setting: source organism: Dengue virus 3 Martinique/1243/1999.
The mark [10] stands for this setting: source organism: Vaccinia virus WR.
[11] abbreviates: source organism: Mammarenavirus brazilense.
[12] abbreviates: source organism: Mammarenavirus whitewaterense.
Where [13] appears, read: source organism: Mycobacterium tuberculosis.

Consider KLALITVSG, for which, in the test with HLA-A*32:01 (setting [5]), the dissociation constant (Kd) came out at 82.8 nM.
Consider MTGTLAVFLL, for which, in the test with HLA-A*01:01 [1] (setting [6]), the Kd is not below 34.6 µM.
On to VAGGLLTVCY, for which the dissociation constant (Kd) is 108 nM with HLA-A*30:02 (setting [7]) and not below 37 µM in the test with HLA-A*01:01 [1] (setting [7]).
On to RTAGMIIML, for which the Kd with HLA-A*32:01 (setting [8]) was determined as 96.5 nM.
Regarding ASDRMGMGV, in the test with HLA-A*01:01 [1] (setting [9]), the Kd turned out to be 1.37 µM.
On to QETWNRQDL, for which, in the test with HLA-B*40:01 (setting [6]), the dissociation constant (Kd) amounted to 72.8 nM.
Regarding AALLLLVAHY, the equilibrium dissociation constant (Kd) with HLA-A*30:02 (setting [7]) is 10500 nM.
ETLLLLTLLA: in the test with HLA-A*26:01 (setting [7]), the Kd is not below 22.7 µM.
EYVKTRTNDW: the values for the dissociation constant Kd with HLA-A*23:01 (setting [8]) and with HLA-A*24:02 (setting [8]) were 3.41 µM and 2.17 µM, respectively.
KEGDQYIYM: the Kd with HLA-B*40:01 (source organism: Dengue virus 1 Nauru/West Pac/1974) is 45.1 nM.
In the case of WLVHKQWFLD, in the test with HLA-A*32:01 (setting [6]), the dissociation constant Kd was 2070 nM.
Take ITINYFLLL: the Kd with HLA-A*32:01 (setting [10]) was not below 77800 nM.
In the case of EERVILAGPM, the Kd was 2280 nM with HLA-B*44:02 (setting [7]) and 2740 nM in the test with HLA-B*40:01 (setting [7]).
ILGPPGSVY: the dissociation constant Kd is 852 nM with HLA-A*03:01 (source organism: Homo sapiens); 326 nM with HLA-B*58:01; not below 33.1 µM in the test with HLA-B*07:02; 1660 nM with HLA-A*11:01 [2] (source organism: Homo sapiens); 6.42 µM with HLA-A*01:01 [3].
For the sequence IEKASFIEV, the Kd with HLA-B*40:01 (setting [8]) turned out to be 4040 nM.
Turning to GVSGGSWVDI, in the test with HLA-A*32:01 (setting [7]), the equilibrium dissociation constant (Kd) came out at 4310 nM.
Turning to YVIKVSARV, in the test with HLA-A*26:01 (source organism: Homo sapiens), the equilibrium dissociation constant (Kd) stood at 0.00861 µM.
On to GYKETPFLT, for which the dissociation constant Kd in the test with HLA-A*30:02 (setting [11]) is not below 76900 nM; with HLA-A*26:01 (setting [11]), not below 77.9 µM; with HLA-A*01:01 [1] (setting [11]), not below 65.2 µM.
For IINKFFEVI, in the test with HLA-A*32:01 (setting [10]), the Kd was 11.1 nM.
With EAILPEYGTL, the dissociation constant (Kd) in the test with HLA-A*26:01 (setting [9]) was 13.9 µM.
For YQPESQKFI, the values for the dissociation constant (Kd) in the test with HLA-A*23:01 (setting [12]), with HLA-A*29:02 and in the test with HLA-A*24:02 (setting [12]) were 7.21 µM, 3.39 µM and 8.48 µM, respectively.
Turning to SLGILCVSI, the dissociation constant Kd in the test with HLA-A*32:01 (setting [6]) came out at 238 nM.
For KILLVAVSI, the Kd with HLA-A*32:01 (source organism: Vaccinia virus Copenhagen) stood at 1.54 nM.
Consider RSIMGSNNI, for which, in the test with HLA-A*32:01 (setting [10]), the Kd came to 141 nM.
With MEFIDGISL, the dissociation constant Kd with HLA-B*44:02 (setting [5]) was 182 nM; in the test with HLA-B*44:03 (setting [5]), 52.9 nM; with HLA-B*40:01 (setting [5]), 0.18 nM.
In the case of TVITPMLRH, the dissociation constant Kd with HLA-A*26:01 (setting [9]) amounted to 14.3 µM.
With WNSGYDWITD, in the test with HLA-A*32:01 (setting [6]), the dissociation constant (Kd) was found to be 4830 nM.
As to KALKLSWFKK, the values for the Kd with HLA-A*32:01 (setting [6]) and with HLA-A*11:01 [4] were 9280 nM and 135 nM, respectively.
With GVFKVWHPI, the Kd in the test with HLA-A*02:01 came out at 5.72 µM; with HLA-A*69:01 it was 1340 nM; with HLA-A*11:01 [2] (source organism: Pseudomonas aeruginosa) it was 6490 nM.
As to KINNFANEF, the Kd with HLA-A*32:01 (setting [10]) was 2.08 nM.
Still for that read-out and setting: then IIIFFIVLI, with 13.7 nM.
With IESQKNGSW, the figures for the Kd with HLA-B*44:02 (setting [9]) and with HLA-B*44:03 (setting [9]) were 452 nM and 166 nM, respectively.
NKAWMVHRQW: in the test with HLA-B*44:02 (setting [9]), the equilibrium dissociation constant (Kd) amounted to 12600 nM.
As to FTNMEAQLV, the dissociation constant Kd with HLA-A*01:01 [1] (source organism: Dengue virus 3 Sri Lanka/1266/2000) amounted to 0.403 µM.
As to YQGKTVWFVP, the equilibrium dissociation constant (Kd) with HLA-A*32:01 (setting [5]) was determined as 8500 nM.
Take YTQLRFPKK: the Kd came out at 493 nM with HLA-A*03:01 (setting [13]) and 4.3 nM with HLA-A*11:01 [2] (setting [13]).
For MEKYQLAVTI, the equilibrium dissociation constant (Kd) in the test with HLA-B*44:02 (setting [7]) came out at 331 nM.
As to EEALKGLPI, the Kd with HLA-B*40:01 (setting [9]) was 3380 nM.
For KEIGRMLNI, the equilibrium dissociation constant (Kd) in the test with HLA-B*44:02 (setting [7]) was 418 nM; in the test with HLA-B*44:03 (setting [7]), 417 nM; with HLA-B*40:01 (setting [7]), 216 nM.
ATFLWWIPL had a Kd with HLA-A*11:01 [2] (source organism: Bacillus anthracis) of 12.4 nM.
Regarding EEKLSVVLF, the Kd in the test with HLA-B*44:02 (source organism: Homo sapiens) was found to be 143 nM.
Take STDGPERVIL: the dissociation constant Kd in the test with HLA-A*01:01 [1] (setting [5]) was 18.7 µM.
As for LKIVRNMEKY, the Kd in the test with HLA-A*30:02 (setting [7]) came to 55.2 nM.
AELEEGVYR: the Kd with HLA-B*44:03 (setting [9]) was 9270 nM.
